Legend:
influenza A/Udorn (H3N2) = assay: Influenza virus inactivation assay (protection of MDCK cells); format: cell-based; details: read on day 5, read-out: ED50 (dose required to protect 50% of MDCK cells from influenza infection)
HIV = assay: Anti-HIV bioassay conducted at the National Cancer Institute; format: cell-based; details: against HIV, methods of U.S. Pat. No. 5,843,883
Description: Bioassays were conducted at the National Cancer Institute using the methods described in U.S. Pat. No. 5,843,883 (column 20, lines 20-55), which patent is incorporated herein by reference.

[1] = Acute toxicity dose escalation study in mice; format: in vivo, Hsd:ICR(CD-1) mice; details: intravenously on three consecutive days, high doses / equivalent dose
Description: To compare the acute toxicity of native CV-N and the PEG30 kD-MAL-CV-N(Q62C) conjugate, an in vivo dose escalation study was performed in which Hsd:ICR(CD-1) mice were administered modified or unmodified CN-N intravenously on three consecutive days.

B1: Cyanovirin-N (protein, listed as Nostoc ellipsosporum)
chain: LGKFSQTCYNSAIQGSVLTSTCERTNGGYNTSSIDLNSVIENVDGSLKWQPSNFIETCRNTQLAGSSELAAECKTRAQQFVSTKINLDDHIANIDGTLKYE
Question: With B1 as the molecule, how does the EC50 (influenza A/Udorn (H3N2)) read?
Answer: 2.56 nM

Question: What about the ED50 (HIV) of the same molecule?
Answer: 1 ng/mL

Question: What about the “acute toxicity (observation)” value [1] of the same molecule?
Answer: death of all of the mice
